Results: PMC6497562 (Molecular cancer research : MCR, 2019)

Biological target: neurofibromin (human (endogenous in 786-0 and RCC4), UniProt P21359-2 1-2818)
Test: co-IP

B1: hypoxia-associated factor (HAF), endogenous (natural protein, human (endogenous in 786-0), UniProt O43290 1-800, looked up)
chain: MGSSKKHRGEKEAAGTTAAAGTGGATEQPPRHREHKKHKHRSGGSGGSGGERRKRSRERGGERGSGRRGAEAEARSSTHGRERSQAEPSERRVKREKRDDGYEAAASSKTSSGDASSLSIEETNKLRAKLGLKPLEVNAIKKEAGTKEEPVTADVINPMALRQREELREKLAAAKEKRLLNQKLGKIKTLGEDDPWLDDTAAWIERSRQLQKEKDLAEKRAKLLEEMDQEFGVSTLVEEEFGQRRQDLYSARDLQGLTVEHAIDSFREGETMILTLKDKGVLQEEEDVLVNVNLVDKERAEKNVELRKKKPDYLPYAEDESVDDLAQQKPRSILSKYDEELEGERPHSFRLEQGGTADGLRERELEEIRAKLRLQAQSLSTVGPRLASEYLTPEEMVTFKKTKRRVKKIRKKEKEVVVRADDLLPLGDQTQDGDFGSRLRGRGRRRVSEVEEEKEPVPQPLPSDDTRVENMDISDEEEGGAPPPGSPQVLEEDEAELELQKQLEKGRRLRQLQQLQQLRDSGEKVVEIVKKLESRQRGWEEDEDPERKGAIVFNATSEFCRTLGEIPTYGLAGNREEQEELMDFERDEERSANGGSESDGEENIGWSTVNLDEEKQQQDFSASSTTILDEEPIVNRGLAAALLLCQNKGLLETTVQKVARVKAPNKSLPSAVYCIEDKMAIDDKYSRREEYRGFTQDFKEKDGYKPDVKIEYVDETGRKLTPKEAFRQLSHRFHGKGSGKMKTERRMKKLDEEALLKKMSSSDTPLGTVALLQEKQKAQKTPYIVLSGSGKSMNANTITK
- fold increase of binding in hypoxia over normoxia: ~2 fold
